Publication PMC2904831 (Journal of molecular biology, 2010)
Read-outs that look alike come from different tables or passages of the source. Where no end group is shown, it is not given here. [ ]: non-standard residue; d: D form. pS = N[C@@H](COP(=O)(O)O)C(=O)O

Key:
[1] = test system: pMART-1-specific CD4+ T cell clone D7-F6; experiment: Recognition of peptide-pulsed HLA-DR1+ EBV-B cells by CD4+ T cell clone D7-F6; type: cell-based, human; conditions: ELISA
[2] = test system: pMART-1-specific CD4+ T cell line D7; experiment: Recognition of titrated peptides on HLA-DR1+ APC by CD4+ T cell line D7; type: cell-based, human; conditions: T cell line D7, peptide 25 μM, ELISA; Fig. 4b
[3] = target: HLA-DR1 (HLA-DRβ1*0101) purified from the EBV-transformed homozygous B lymphoblastoid cell line LG2 (human); experiment: radioligand binding
[4] = target: HLA-DR1 (HLA-DRβ1*0101) purified from the EBV-transformed homozygous B lymphoblastoid cell line LG2 (human); experiment: radioligand binding; remark: listed apart in the source

## PKYVKQNTLKLAT [HA307-319]
[1]; clone D7-F6, HLA-DR1+ 2048-EBV cells pre-pulsed with peptide 25 μM, overnight, Fig. 3
  GM-CSF secretion from T cells + APC + peptide: < 15 pg/mL
[1]; clone D7-F6, peptide 15 μM, Fig. 4a
  GM-CSF secretion from T cells + APC + peptide: < 20 pg/mL
[2]
  GM-CSF secretion from T cells + APC + peptide: 0.7 ng/mL

## pMART-1_(98–109) phosphopeptide (from UniProt Q16655 98-109)
[3]
  fold decrease in other: < 2 fold

## pMART-1_(100–116) phosphopeptide (from UniProt Q16655 100-116)
[3]
  IC50: 0.327 µM

## APPAYEKL[pS]AEQSPPP [pMART-1_(100–115) phosphopeptide]
[4]
  IC50: 0.142 µM

## APPAYEKL[pS]AEQSPP [pMART-1_(100–114) phosphopeptide]
[4]
  IC50: 0.102 µM

## APPAYEKL[pS]AEQ [pMART-1_(100–111) phosphopeptide]
[4]
  IC50: 0.459 µM
